Test results reported in patent US20190144544A1 (Eli Lilly, published 2019).

Key:
cell surface PD-L1 = cell surface PD-L1 (human, UniProt Q9NZQ7 19-290); assay: cell-based or functional assay
human PD-L1 monomer = biological target: T1, human PD-L1 monomer (human, UniProt Q9NZQ7 19-238, limits assumed); assay: SPR (Biacore T200) at 20, 25, 37 and 42 °C, Fab as analyte over immobilised human PD-L1 monomer; van't Hoff analysis of the association phase
T1 construct: Amine-coupled to the sensor chip; also called hPD-L1 monomer; hPD-L1
T1 sequence (Q9NZQ7 19-238 limits assumed): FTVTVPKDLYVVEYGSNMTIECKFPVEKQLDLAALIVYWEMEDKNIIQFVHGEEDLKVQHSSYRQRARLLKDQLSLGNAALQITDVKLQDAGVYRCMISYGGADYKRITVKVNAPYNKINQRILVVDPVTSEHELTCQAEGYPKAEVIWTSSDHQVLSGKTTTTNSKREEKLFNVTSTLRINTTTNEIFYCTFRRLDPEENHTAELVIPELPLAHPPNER
Procedure: The sample gradients are prepared in the running buffer HBS-EP (0.01M HEPES pH 7.4, 0.15M NaCl, 3 mM EDTA, 0.005% v/v surfactant P20). The binding experiments are repeated at four different temperatures: 20° C., 25° C., 37° C. and 42° C. Throughout the kinetics experiments, the flow rate is maintained at 30 μl/min and the association/contact time at 180 sec for all three Fabs. […] After dissociation, a 0.75 M NaCl, 25 mM NaOH solution regenerates the immobilized hPD-L1, and then the surface is stabilized for 30 sec with the running buffer. […] The binding kinetics are analyzed using the Biacore T200 Evaluation software (Version 3.0). Data is referenced to a blank flow cell, and the data is fitted to the 1:1 Langmuir binding model.
Steady-state, association, and dissociation are the three binding phases analyzed. MATLAB is utilized for the linear regression analysis.

Chain of cell surface PD-L1 (Q9NZQ7 19-290 limits assumed): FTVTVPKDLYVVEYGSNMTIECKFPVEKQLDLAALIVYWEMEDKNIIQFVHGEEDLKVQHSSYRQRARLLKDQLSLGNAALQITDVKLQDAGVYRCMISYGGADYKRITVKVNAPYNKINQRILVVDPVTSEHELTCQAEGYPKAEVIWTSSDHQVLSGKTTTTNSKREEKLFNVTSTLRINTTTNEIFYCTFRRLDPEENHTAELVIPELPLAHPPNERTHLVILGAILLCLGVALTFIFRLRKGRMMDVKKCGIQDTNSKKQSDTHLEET

IFN-γ secretion fold change vs. IgG control, mixed lymphocyte reaction, 0.01 nM antibody (cell surface PD-L1) [fold]	IFN-γ secretion fold change vs. IgG control, mixed lymphocyte reaction, 0.05 nM antibody (cell surface PD-L1) [fold]	IFN-γ secretion fold change vs. IgG control, mixed lymphocyte reaction, 0.27 nM antibody (cell surface PD-L1) [fold]	IFN-γ secretion fold change vs. IgG control, mixed lymphocyte reaction, 1.3 nM antibody (cell surface PD-L1) [fold]	IFN-γ secretion fold change vs. IgG control, mixed lymphocyte reaction, 6.7 nM antibody (cell surface PD-L1) [fold]	IFN-γ secretion fold change vs. IgG control, mixed lymphocyte reaction, 33.3 nM antibody (cell surface PD-L1) [fold]	ΔSon (human PD-L1 monomer)	Binder
1.25	1.95	2.68	4.13	4.11	5.71		Antibody A (antibody, human IgG1, lambda, V domains shown) VH: QVQLVQSGAEVKKPGSSVKVSCKASGGTFSSYAISWVRQAPGQGLEWMGGIIPIFGTANYAQKFQGRVTITADKSTSTAYMELSSLRSEDTAVYYCARSPDYSPYYYYGMDVWGQGTTVTVSS VL: QSVLTQPPSASGTPGQRVTISCSGSSSNIGSNTVNWYQQLPGTAPKLLIYGNSNRPSGVPDRFSGSKSGTSASLAISGLQSEDEADYYCQSYDSSLSGSVFGGGIKLTVLG
						-26	Antibody A-Fab (Fab, V domains shown, CH1 and the lambda constant domain are not specified for the Fab; also called Fab of Antibody A) VH: QVQLVQSGAEVKKPGSSVKVSCKASGGTFSSYAISWVRQAPGQGLEWMGGIIPIFGTANYAQKFQGRVTITADKSTSTAYMELSSLRSEDTAVYYCARSPDYSPYYYYGMDVWGQGTTVTVSS VL: QSVLTQPPSASGTPGQRVTISCSGSSSNIGSNTVNWYQQLPGTAPKLLIYGNSNRPSGVPDRFSGSKSGTSASLAISGLQSEDEADYYCQSYDSSLSGSVFGGGIKLTVLG
